From IntAct's records for PubMed 35512704

B1: Speckle-type POZ protein (Homo sapiens), O43791 (parent)
chain: MSRVPSPPPPAEMSSGPVAESWCYTQIKVVKFSYMWTINNFSFCREEMGEVIKSSTFSSGANDKLKWCLRVNPKGLDEESKDYLSLYLLLVSCPKSEVRAKFKFSILNAKGEETKAMESQRAYRFVQGKDWGFKKFIRRDFLLDEANGLLPDDKLTLFCEVSVVQDSVNISGQNTMNMVKVPECRLADELGGLWENSRFTDCCLCVAGQEFQAHKAILAARSPVFSAMFEHEMEESKKNRVEINDVEPEVFKEMMCFIYTGKAPNLDKMADDLLAAADKYALERLKVMCEDALCSNLSVENAAEILILADLHSADQLKTQAVDFINYHASDVLETSGWKSMVVSHPHLVAEAYRSLASAQCPFLGPPRKRLKQS

Variants of: B1
Conditions: with sox2_human SOX2, P48431
Sequence of sox2_human SOX2, P48431 (P48431 whole entry): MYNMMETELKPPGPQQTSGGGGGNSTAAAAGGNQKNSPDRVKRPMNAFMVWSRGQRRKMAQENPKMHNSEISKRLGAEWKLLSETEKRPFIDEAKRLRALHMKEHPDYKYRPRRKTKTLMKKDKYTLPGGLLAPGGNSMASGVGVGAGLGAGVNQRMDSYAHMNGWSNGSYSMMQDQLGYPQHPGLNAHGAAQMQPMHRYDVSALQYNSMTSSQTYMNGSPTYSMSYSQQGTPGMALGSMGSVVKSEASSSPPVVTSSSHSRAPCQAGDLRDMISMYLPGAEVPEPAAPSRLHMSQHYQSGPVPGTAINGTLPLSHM

Variant	effect of a mutation on the interaction
MSRVPSPPPPAEMSSGPVAESWCYTQIKVVKFSYMWTINNFSFCREEMGEVIKSSTFSSGANDKLKWCLRVNPKGLDEESKDYLSLYLLLVSCPKSEVRAKFKFSILNAKGEETKAMESQRAYRFVQGKDWGVKKFIRRDFLLDEANGLLPDDKLTLFCEVSVVQDSVNISGQNTMNMVKVPECRLADELGGLWENSRFTDCCLCVAGQEFQAHKAILAARSPVFSAMFEHEMEESKKNRVEINDVEPEVFKEMMCFIYTGKAPNLDKMADDLLAAADKYALERLKVMCEDALCSNLSVENAAEILILADLHSADQLKTQAVDFINYHASDVLETSGWKSMVVSHPHLVAEAYRSLASAQCPFLGPPRKRLKQS [F133V]	with no effect

Variants of: B1
Conditions: with src_human SRC

Variant	effect of a mutation on the interaction
MSRVPSPPPPAEMSSGPVAESWCYTQIKVVKFSYMWTINNFSFCREEMGEVIKSSTFSSGANDKLKWCLRVNPKGLDEESKDYLSLYLLLVSCPKSEVRAKFKFSILNAKGEETKAMESQRAYRFVQGKDWGVKKFIRRDFLLDEANGLLPDDKLTLFCEVSVVQDSVNISGQNTMNMVKVPECRLADELGGLWENSRFTDCCLCVAGQEFQAHKAILAARSPVFSAMFEHEMEESKKNRVEINDVEPEVFKEMMCFIYTGKAPNLDKMADDLLAAADKYALERLKVMCEDALCSNLSVENAAEILILADLHSADQLKTQAVDFINYHASDVLETSGWKSMVVSHPHLVAEAYRSLASAQCPFLGPPRKRLKQS [F133V]	with no effect

Variants of: B1
Conditions: with whr1_human WHR1, P49842
Sequence of whr1_human WHR1, P49842 (P49842 whole entry): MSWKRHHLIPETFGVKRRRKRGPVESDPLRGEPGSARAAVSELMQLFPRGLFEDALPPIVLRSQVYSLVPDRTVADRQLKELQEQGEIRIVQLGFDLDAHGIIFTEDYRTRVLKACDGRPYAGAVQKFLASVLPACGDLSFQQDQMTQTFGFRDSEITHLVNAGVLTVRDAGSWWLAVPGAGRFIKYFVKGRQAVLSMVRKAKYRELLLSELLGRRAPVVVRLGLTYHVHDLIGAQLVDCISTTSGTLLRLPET

Variant	effect of a mutation on the interaction
MSRVPSPPPPAEMSSGPVAESWCYTQIKVVKFSYMWTINNFSFCREEMGEVIKSSTFSSGANDKLKWCLRVNPKGLDEESKDYLSLYLLLVSCPKSEVRAKFKFSILNAKGEETKAMESQRAYRFVQGKDWGVKKFIRRDFLLDEANGLLPDDKLTLFCEVSVVQDSVNISGQNTMNMVKVPECRLADELGGLWENSRFTDCCLCVAGQEFQAHKAILAARSPVFSAMFEHEMEESKKNRVEINDVEPEVFKEMMCFIYTGKAPNLDKMADDLLAAADKYALERLKVMCEDALCSNLSVENAAEILILADLHSADQLKTQAVDFINYHASDVLETSGWKSMVVSHPHLVAEAYRSLASAQCPFLGPPRKRLKQS [F133V]	with no effect

Variants of: B1
Conditions: with stk38_human STK38, Q15208
Sequence of stk38_human STK38, Q15208 (Q15208 whole entry, looked up): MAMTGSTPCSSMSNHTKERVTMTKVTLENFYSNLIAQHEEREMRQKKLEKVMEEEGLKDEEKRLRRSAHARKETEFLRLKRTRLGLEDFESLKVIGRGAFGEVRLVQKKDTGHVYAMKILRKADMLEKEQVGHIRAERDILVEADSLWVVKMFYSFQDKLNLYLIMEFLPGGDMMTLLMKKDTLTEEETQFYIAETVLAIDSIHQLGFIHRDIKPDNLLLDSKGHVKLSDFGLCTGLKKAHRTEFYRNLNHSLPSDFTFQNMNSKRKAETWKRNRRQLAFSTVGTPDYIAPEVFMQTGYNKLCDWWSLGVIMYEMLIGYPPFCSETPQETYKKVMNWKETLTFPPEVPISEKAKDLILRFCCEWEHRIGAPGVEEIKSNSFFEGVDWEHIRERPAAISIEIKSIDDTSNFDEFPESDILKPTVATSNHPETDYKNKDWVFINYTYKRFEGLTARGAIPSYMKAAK

Variant	effect of a mutation on the interaction
MSRVPSPPPPAEMSSGPVAESWCYTQIKVVKFSYMWTINNFSFCREEMGEVIKSSTFSSGANDKLKWCLRVNPKGLDEESKDYLSLYLLLVSCPKSEVRAKFKFSILNAKGEETKAMESQRAYRFVQGKDWGVKKFIRRDFLLDEANGLLPDDKLTLFCEVSVVQDSVNISGQNTMNMVKVPECRLADELGGLWENSRFTDCCLCVAGQEFQAHKAILAARSPVFSAMFEHEMEESKKNRVEINDVEPEVFKEMMCFIYTGKAPNLDKMADDLLAAADKYALERLKVMCEDALCSNLSVENAAEILILADLHSADQLKTQAVDFINYHASDVLETSGWKSMVVSHPHLVAEAYRSLASAQCPFLGPPRKRLKQS [F133V]	with no effect

Variants of: B1
Conditions: with eloc_human ELOC

Variant	effect of a mutation on the interaction
MSRVPSPPPPAEMSSGPVAESWCYTQIKVVKFSYMWTINNFSFCREEMGEVIKSSTFSSGANDKLKWCLRVNPKGLDEESKDYLSLYLLLVSCPKSEVRAKFKFSILNAKGEETKAMESQRAYRFVQGKDWGVKKFIRRDFLLDEANGLLPDDKLTLFCEVSVVQDSVNISGQNTMNMVKVPECRLADELGGLWENSRFTDCCLCVAGQEFQAHKAILAARSPVFSAMFEHEMEESKKNRVEINDVEPEVFKEMMCFIYTGKAPNLDKMADDLLAAADKYALERLKVMCEDALCSNLSVENAAEILILADLHSADQLKTQAVDFINYHASDVLETSGWKSMVVSHPHLVAEAYRSLASAQCPFLGPPRKRLKQS [F133V]	with no effect

Variants of: B1
Conditions: with tfe2_human TCF3, P15923

Variant	effect of a mutation on the interaction
MSRVPSPPPPAEMSSGPVAESWCYTQIKVVKFSYMWTINNFSFCREEMGEVIKSSTFSSGANDKLKWCLRVNPKGLDEESKDYLSLYLLLVSCPKSEVRAKFKFSILNAKGEETKAMESQRAYRFVQGKDWGVKKFIRRDFLLDEANGLLPDDKLTLFCEVSVVQDSVNISGQNTMNMVKVPECRLADELGGLWENSRFTDCCLCVAGQEFQAHKAILAARSPVFSAMFEHEMEESKKNRVEINDVEPEVFKEMMCFIYTGKAPNLDKMADDLLAAADKYALERLKVMCEDALCSNLSVENAAEILILADLHSADQLKTQAVDFINYHASDVLETSGWKSMVVSHPHLVAEAYRSLASAQCPFLGPPRKRLKQS [F133V]	with no effect

Variants of: B1
Conditions: with tead1_human TEAD1, P28347
Sequence of tead1_human TEAD1, P28347 (P28347 whole entry): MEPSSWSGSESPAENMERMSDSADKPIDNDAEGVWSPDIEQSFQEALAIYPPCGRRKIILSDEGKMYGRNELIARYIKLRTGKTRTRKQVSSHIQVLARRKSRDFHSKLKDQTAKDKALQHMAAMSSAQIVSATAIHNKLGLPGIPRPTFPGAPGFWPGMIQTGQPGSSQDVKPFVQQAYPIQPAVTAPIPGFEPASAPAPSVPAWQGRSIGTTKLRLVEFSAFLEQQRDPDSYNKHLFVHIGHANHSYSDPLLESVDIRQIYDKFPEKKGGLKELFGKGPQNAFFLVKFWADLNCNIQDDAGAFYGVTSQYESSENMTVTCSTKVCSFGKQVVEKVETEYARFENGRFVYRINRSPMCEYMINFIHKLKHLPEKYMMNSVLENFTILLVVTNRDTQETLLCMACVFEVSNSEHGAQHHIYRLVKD

Variant	effect of a mutation on the interaction
MSRVPSPPPPAEMSSGPVAESWCYTQIKVVKFSYMWTINNFSFCREEMGEVIKSSTFSSGANDKLKWCLRVNPKGLDEESKDYLSLYLLLVSCPKSEVRAKFKFSILNAKGEETKAMESQRAYRFVQGKDWGVKKFIRRDFLLDEANGLLPDDKLTLFCEVSVVQDSVNISGQNTMNMVKVPECRLADELGGLWENSRFTDCCLCVAGQEFQAHKAILAARSPVFSAMFEHEMEESKKNRVEINDVEPEVFKEMMCFIYTGKAPNLDKMADDLLAAADKYALERLKVMCEDALCSNLSVENAAEILILADLHSADQLKTQAVDFINYHASDVLETSGWKSMVVSHPHLVAEAYRSLASAQCPFLGPPRKRLKQS [F133V]	with no effect

Variants of: B1
Conditions: with tead3_human TEAD3, Q99594
Sequence of tead3_human TEAD3, Q99594 (Q99594 whole entry): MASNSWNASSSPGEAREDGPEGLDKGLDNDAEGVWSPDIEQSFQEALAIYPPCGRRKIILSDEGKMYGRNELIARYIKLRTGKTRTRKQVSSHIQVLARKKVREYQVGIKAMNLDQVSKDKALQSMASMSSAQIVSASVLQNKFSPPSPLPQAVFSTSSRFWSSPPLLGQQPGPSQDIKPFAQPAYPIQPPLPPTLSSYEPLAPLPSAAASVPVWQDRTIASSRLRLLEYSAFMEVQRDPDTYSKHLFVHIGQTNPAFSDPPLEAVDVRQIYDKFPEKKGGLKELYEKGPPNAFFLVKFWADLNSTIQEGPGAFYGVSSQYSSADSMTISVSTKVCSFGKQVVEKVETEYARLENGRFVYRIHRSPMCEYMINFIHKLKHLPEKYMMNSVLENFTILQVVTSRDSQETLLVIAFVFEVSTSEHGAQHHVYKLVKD

Variant	effect of a mutation on the interaction
MSRVPSPPPPAEMSSGPVAESWCYTQIKVVKFSYMWTINNFSFCREEMGEVIKSSTFSSGANDKLKWCLRVNPKGLDEESKDYLSLYLLLVSCPKSEVRAKFKFSILNAKGEETKAMESQRAYRFVQGKDWGVKKFIRRDFLLDEANGLLPDDKLTLFCEVSVVQDSVNISGQNTMNMVKVPECRLADELGGLWENSRFTDCCLCVAGQEFQAHKAILAARSPVFSAMFEHEMEESKKNRVEINDVEPEVFKEMMCFIYTGKAPNLDKMADDLLAAADKYALERLKVMCEDALCSNLSVENAAEILILADLHSADQLKTQAVDFINYHASDVLETSGWKSMVVSHPHLVAEAYRSLASAQCPFLGPPRKRLKQS [F133V]	with no effect

Variants of: B1
Conditions: with tead4_human TEAD4, Q15561
Sequence of tead4_human TEAD4, Q15561 (Q15561 whole entry): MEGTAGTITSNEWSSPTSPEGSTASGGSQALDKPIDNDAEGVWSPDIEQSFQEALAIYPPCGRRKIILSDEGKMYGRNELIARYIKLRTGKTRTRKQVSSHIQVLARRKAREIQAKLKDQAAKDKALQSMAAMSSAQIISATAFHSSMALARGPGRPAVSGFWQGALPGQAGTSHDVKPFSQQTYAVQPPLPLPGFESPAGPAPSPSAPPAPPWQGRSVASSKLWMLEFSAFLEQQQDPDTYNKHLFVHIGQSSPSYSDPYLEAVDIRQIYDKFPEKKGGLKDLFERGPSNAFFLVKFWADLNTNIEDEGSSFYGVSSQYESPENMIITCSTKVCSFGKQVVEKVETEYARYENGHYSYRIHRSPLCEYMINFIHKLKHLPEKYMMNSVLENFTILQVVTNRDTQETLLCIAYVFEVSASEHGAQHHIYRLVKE

Variant	effect of a mutation on the interaction
MSRVPSPPPPAEMSSGPVAESWCYTQIKVVKFSYMWTINNFSFCREEMGEVIKSSTFSSGANDKLKWCLRVNPKGLDEESKDYLSLYLLLVSCPKSEVRAKFKFSILNAKGEETKAMESQRAYRFVQGKDWGVKKFIRRDFLLDEANGLLPDDKLTLFCEVSVVQDSVNISGQNTMNMVKVPECRLADELGGLWENSRFTDCCLCVAGQEFQAHKAILAARSPVFSAMFEHEMEESKKNRVEINDVEPEVFKEMMCFIYTGKAPNLDKMADDLLAAADKYALERLKVMCEDALCSNLSVENAAEILILADLHSADQLKTQAVDFINYHASDVLETSGWKSMVVSHPHLVAEAYRSLASAQCPFLGPPRKRLKQS [F133V]	with no effect

Variants of: B1
Conditions: with tgfr2_human TGFBR2, P37173
Sequence of tgfr2_human TGFBR2, P37173 (P37173 whole entry): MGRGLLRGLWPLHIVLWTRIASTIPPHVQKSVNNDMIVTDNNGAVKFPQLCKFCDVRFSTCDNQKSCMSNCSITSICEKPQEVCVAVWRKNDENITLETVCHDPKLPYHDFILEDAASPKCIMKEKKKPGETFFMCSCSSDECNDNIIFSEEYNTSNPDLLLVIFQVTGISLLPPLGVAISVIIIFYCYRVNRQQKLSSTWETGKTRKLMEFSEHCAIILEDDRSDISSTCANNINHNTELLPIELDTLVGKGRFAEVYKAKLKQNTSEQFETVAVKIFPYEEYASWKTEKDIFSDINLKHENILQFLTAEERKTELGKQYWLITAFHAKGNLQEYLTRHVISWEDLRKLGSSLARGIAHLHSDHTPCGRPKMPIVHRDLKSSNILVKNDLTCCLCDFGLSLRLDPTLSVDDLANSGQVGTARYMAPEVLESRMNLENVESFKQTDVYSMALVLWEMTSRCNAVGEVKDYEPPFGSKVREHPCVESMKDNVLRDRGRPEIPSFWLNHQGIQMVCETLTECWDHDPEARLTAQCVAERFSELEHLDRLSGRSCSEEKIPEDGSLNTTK

Variant	effect of a mutation on the interaction
MSRVPSPPPPAEMSSGPVAESWCYTQIKVVKFSYMWTINNFSFCREEMGEVIKSSTFSSGANDKLKWCLRVNPKGLDEESKDYLSLYLLLVSCPKSEVRAKFKFSILNAKGEETKAMESQRAYRFVQGKDWGVKKFIRRDFLLDEANGLLPDDKLTLFCEVSVVQDSVNISGQNTMNMVKVPECRLADELGGLWENSRFTDCCLCVAGQEFQAHKAILAARSPVFSAMFEHEMEESKKNRVEINDVEPEVFKEMMCFIYTGKAPNLDKMADDLLAAADKYALERLKVMCEDALCSNLSVENAAEILILADLHSADQLKTQAVDFINYHASDVLETSGWKSMVVSHPHLVAEAYRSLASAQCPFLGPPRKRLKQS [F133V]	with no effect

Variants of: B1
Conditions: with tnr14_human TNFRSF14, Q92956
Sequence of tnr14_human TNFRSF14, Q92956 (Q92956 whole entry): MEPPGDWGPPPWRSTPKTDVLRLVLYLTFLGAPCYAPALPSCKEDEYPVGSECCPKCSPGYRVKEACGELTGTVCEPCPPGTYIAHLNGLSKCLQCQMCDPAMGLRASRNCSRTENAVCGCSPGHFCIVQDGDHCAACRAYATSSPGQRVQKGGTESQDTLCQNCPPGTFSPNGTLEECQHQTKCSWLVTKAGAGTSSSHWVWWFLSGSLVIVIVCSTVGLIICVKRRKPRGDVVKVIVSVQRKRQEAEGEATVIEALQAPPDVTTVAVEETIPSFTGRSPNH

Variant	effect of a mutation on the interaction
MSRVPSPPPPAEMSSGPVAESWCYTQIKVVKFSYMWTINNFSFCREEMGEVIKSSTFSSGANDKLKWCLRVNPKGLDEESKDYLSLYLLLVSCPKSEVRAKFKFSILNAKGEETKAMESQRAYRFVQGKDWGVKKFIRRDFLLDEANGLLPDDKLTLFCEVSVVQDSVNISGQNTMNMVKVPECRLADELGGLWENSRFTDCCLCVAGQEFQAHKAILAARSPVFSAMFEHEMEESKKNRVEINDVEPEVFKEMMCFIYTGKAPNLDKMADDLLAAADKYALERLKVMCEDALCSNLSVENAAEILILADLHSADQLKTQAVDFINYHASDVLETSGWKSMVVSHPHLVAEAYRSLASAQCPFLGPPRKRLKQS [F133V]	with no effect

Variants of: B1
Conditions: with tpx2_human TPX2, Q9ULW0

Variant	effect of a mutation on the interaction
MSRVPSPPPPAEMSSGPVAESWCYTQIKVVKFSYMWTINNFSFCREEMGEVIKSSTFSSGANDKLKWCLRVNPKGLDEESKDYLSLYLLLVSCPKSEVRAKFKFSILNAKGEETKAMESQRAYRFVQGKDWGVKKFIRRDFLLDEANGLLPDDKLTLFCEVSVVQDSVNISGQNTMNMVKVPECRLADELGGLWENSRFTDCCLCVAGQEFQAHKAILAARSPVFSAMFEHEMEESKKNRVEINDVEPEVFKEMMCFIYTGKAPNLDKMADDLLAAADKYALERLKVMCEDALCSNLSVENAAEILILADLHSADQLKTQAVDFINYHASDVLETSGWKSMVVSHPHLVAEAYRSLASAQCPFLGPPRKRLKQS [F133V]	with no effect

Variants of: B1
Conditions: with tsc2_human TSC2, P49815
Sequence of tsc2_human TSC2, P49815 (P49815 whole entry): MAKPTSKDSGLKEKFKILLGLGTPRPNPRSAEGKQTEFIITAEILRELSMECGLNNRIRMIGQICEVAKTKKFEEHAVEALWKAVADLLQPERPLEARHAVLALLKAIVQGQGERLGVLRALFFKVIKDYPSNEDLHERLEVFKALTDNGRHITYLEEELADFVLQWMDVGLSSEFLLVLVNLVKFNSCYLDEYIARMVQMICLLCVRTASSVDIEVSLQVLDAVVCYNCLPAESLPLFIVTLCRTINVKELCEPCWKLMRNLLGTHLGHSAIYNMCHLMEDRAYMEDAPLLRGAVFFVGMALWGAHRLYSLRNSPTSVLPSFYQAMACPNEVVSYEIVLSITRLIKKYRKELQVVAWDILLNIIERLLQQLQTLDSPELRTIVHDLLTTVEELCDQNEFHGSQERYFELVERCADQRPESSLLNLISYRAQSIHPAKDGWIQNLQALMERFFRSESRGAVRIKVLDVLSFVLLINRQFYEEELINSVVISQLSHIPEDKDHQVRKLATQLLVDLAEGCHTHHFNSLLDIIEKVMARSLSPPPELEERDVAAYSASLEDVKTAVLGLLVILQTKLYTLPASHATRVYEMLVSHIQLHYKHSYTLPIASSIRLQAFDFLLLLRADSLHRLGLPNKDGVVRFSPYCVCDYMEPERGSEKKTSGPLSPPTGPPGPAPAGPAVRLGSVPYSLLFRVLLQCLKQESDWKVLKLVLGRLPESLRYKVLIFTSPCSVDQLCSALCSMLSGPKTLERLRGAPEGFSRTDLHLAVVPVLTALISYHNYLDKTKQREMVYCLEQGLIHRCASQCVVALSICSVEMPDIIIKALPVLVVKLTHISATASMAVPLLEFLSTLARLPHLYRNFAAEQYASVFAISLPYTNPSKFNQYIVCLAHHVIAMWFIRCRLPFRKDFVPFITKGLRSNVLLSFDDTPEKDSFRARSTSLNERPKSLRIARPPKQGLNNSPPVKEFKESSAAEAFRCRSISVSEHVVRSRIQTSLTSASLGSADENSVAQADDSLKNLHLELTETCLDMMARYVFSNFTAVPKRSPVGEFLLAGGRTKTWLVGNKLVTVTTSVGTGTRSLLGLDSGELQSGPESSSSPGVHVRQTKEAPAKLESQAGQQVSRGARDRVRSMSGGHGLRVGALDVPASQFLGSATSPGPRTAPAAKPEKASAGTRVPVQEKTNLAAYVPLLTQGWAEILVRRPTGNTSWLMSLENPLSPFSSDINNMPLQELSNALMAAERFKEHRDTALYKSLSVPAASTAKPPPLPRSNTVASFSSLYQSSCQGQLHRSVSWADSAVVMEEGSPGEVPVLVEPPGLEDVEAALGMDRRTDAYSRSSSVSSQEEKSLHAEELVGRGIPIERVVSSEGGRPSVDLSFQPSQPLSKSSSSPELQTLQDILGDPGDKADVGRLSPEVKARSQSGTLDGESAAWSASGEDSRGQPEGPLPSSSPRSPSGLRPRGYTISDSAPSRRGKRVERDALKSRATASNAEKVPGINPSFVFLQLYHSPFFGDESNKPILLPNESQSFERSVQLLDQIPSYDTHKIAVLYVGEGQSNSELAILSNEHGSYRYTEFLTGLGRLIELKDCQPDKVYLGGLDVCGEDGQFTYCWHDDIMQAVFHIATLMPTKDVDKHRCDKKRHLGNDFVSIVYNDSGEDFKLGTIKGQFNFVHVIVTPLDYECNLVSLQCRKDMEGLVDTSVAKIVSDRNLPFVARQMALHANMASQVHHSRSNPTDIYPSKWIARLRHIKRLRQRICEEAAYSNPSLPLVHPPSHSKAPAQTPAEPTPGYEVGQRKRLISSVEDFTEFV

Variant	effect of a mutation on the interaction
MSRVPSPPPPAEMSSGPVAESWCYTQIKVVKFSYMWTINNFSFCREEMGEVIKSSTFSSGANDKLKWCLRVNPKGLDEESKDYLSLYLLLVSCPKSEVRAKFKFSILNAKGEETKAMESQRAYRFVQGKDWGVKKFIRRDFLLDEANGLLPDDKLTLFCEVSVVQDSVNISGQNTMNMVKVPECRLADELGGLWENSRFTDCCLCVAGQEFQAHKAILAARSPVFSAMFEHEMEESKKNRVEINDVEPEVFKEMMCFIYTGKAPNLDKMADDLLAAADKYALERLKVMCEDALCSNLSVENAAEILILADLHSADQLKTQAVDFINYHASDVLETSGWKSMVVSHPHLVAEAYRSLASAQCPFLGPPRKRLKQS [F133V]	with no effect
